Results: US20210340265A1 (UNM RAINFOREST INNOVATIONS, published 2021)
Ends that are not written are not given here. * marks the point of attachment. Biotin = O=C1N[C@H]2[C@H](CS[C@H]2CCCCC(=O)*)N1

Columns and labels:
[1] = molecular target: T1, CCK-B receptor (as coated in the indirect ELISA; form not stated); experiment: ELISA
T1 chain: CETPRIRGTGTRELE

[2] = molecular target: T2, 15-amino-acid extracellular CCK-B receptor peptide fragment CETPRIRGTGTRELE; experiment: indirect ELISA on CCK-B receptor peptide
T2 construct: Custom peptide (GenScript) used for immunization and panning; also called CCK-B peptide
T2 peptide: Biotin-CETPRIRGTGTRELE

B1: CCK-BR-scFv77-2 (scFv)
scFv: MAGAELVRSGASVKLSCTASGFNIKDYYIHWVKQRPEQGLEWIGWIDPENGDTEYAPKFQGKATMTADTSSNTAYLQLSSLTSEDTAVYYCNAGGRFAYWGQGTLVTVSAAKTTAPSGGGGSGGGGSGGGGGSGGGGSSSLSVSAGEKVTMSCKSSQSLLNSGNQKNYLAWYQQKPGQPPKLLIYGASTRESGVPDRFTGSGSGTDFTLTISSVQAEDLAVYYCQNDHSYPYTFGGGTKLEIKRADAAALEHHHHHH
Binder B1 has a Kd [1] of 195 nM.

B2: CCK-BR-scFv134-1 (scFv)
scFv: MAGAELVKPGASVKMSCKASGYTFTDYWMHWVKQRPGQGLEWIGAIDTSDSYTSYNQKFKGKATLTVDKSSSTAYIQLSSLTSEDSAVYYCARSEGYLPFDYWGQGTTLTVSSAKTTAPSGGGGSGGGGSGGGGGSGGGGSLSLPVSFGDQVSISCRSSQSLANSYGNTYLSWYLHKPGQSPQLLIYGISNRFSGVPDRFSGSGSGTDFTLKISTIKPEDLGMYYCLQGTHQPRTFGGGTKLEIKRADAAALEHHHHHH
Binder B2 has a Kd [1] of 366 nM.

B3: CCK-BR-scFv14-3 (scFv)
chain: MAGAELVRSGASVKLSCTASGFNIKDYYIHWVKQRPEQGLEWIGWIDPENGDTEYAPKFQGKATMTADTSSNTAYLQLSSLTSEDTAVYYCNAGGRFAYWGQGTLVTVSAAKTTAPSGGGGSGGGGSGGGGGSGGGGSSSLSVSSGEKVTMSCKSSQSLLNSGNQKNYLAWYQQKPGQPPKLLIYWASTDESGVPDRFTGSGSGTDFTLTVSSVQAENLALYYCQNDHSYPYHVFDGGTKLEIKRADAAALE
B3 was tested, and the Kd [1] was 349 nM.

B4: CCKBR-scFv11-2 (scFv)
scFv: MAQVQLKQSGAELVRPGSSVKISCKASGYAFTNYLIEWVKQRPGQGLEWIGQIYPGDGDTNYNGKFKGKATLTVDNSSSTAYMELRSLTSEDSAVYYCARAATWYYAMDYWGQGTSVTVSSGGGGSGGGGSAIMSASPGEKVTITCSASSSVSYMHWFQQKPGTSPKLWIYSTSNLASGVPARFSGSGSGTSYSLTISSMEAEDAASYFCHQWSSYPWTFGGGTKLEIKRADAAALEHHHHHH
B4: binds [2].
